# T1: LOX 3-4m.925 (artificial (I-CreI derived))
# T1 chain: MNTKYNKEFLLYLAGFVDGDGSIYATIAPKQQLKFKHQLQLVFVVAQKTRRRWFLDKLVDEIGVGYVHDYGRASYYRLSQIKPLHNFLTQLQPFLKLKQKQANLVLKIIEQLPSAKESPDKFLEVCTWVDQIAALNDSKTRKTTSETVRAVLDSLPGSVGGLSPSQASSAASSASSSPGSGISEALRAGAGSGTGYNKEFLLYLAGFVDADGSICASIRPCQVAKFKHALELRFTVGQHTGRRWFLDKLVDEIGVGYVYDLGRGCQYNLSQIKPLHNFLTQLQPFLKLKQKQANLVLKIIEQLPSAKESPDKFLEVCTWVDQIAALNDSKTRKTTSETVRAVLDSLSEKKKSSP
# T2: LOX 3-4m.893 (artificial (I-CreI derived))
# T2 chain: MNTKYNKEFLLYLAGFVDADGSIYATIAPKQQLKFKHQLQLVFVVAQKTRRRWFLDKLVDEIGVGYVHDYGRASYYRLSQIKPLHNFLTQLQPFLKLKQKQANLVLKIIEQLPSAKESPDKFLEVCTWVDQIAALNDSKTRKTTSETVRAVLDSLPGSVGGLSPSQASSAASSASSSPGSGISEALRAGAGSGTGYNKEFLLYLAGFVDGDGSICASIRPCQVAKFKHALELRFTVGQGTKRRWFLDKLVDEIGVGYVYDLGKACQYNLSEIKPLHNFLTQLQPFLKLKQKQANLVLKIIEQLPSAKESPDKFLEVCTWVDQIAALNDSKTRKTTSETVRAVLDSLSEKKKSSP
# T3: LOX 3-4m.949 (artificial (I-CreI derived))
# T3 chain: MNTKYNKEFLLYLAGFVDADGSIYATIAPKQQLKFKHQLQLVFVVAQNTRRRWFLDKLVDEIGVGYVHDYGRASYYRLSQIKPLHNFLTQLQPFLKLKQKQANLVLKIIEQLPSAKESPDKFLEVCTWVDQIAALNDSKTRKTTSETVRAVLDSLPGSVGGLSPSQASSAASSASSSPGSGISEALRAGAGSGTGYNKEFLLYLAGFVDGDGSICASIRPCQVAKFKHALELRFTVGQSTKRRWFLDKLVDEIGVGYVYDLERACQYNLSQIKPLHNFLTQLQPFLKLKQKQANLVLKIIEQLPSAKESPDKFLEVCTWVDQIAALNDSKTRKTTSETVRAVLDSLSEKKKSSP
# T4: LOX 3-4m.869 (artificial (I-CreI derived))
# T4 chain: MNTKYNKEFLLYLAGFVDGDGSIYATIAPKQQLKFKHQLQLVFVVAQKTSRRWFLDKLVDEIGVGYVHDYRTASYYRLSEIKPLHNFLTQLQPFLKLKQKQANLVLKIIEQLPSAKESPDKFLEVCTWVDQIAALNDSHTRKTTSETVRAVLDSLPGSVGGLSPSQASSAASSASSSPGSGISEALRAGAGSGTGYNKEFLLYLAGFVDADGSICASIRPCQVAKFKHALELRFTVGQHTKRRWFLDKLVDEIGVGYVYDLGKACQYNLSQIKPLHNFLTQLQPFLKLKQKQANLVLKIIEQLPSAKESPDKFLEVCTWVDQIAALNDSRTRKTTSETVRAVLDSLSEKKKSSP
# T5: LOX 3-4m.1044 (artificial (I-CreI derived))
# T5 chain: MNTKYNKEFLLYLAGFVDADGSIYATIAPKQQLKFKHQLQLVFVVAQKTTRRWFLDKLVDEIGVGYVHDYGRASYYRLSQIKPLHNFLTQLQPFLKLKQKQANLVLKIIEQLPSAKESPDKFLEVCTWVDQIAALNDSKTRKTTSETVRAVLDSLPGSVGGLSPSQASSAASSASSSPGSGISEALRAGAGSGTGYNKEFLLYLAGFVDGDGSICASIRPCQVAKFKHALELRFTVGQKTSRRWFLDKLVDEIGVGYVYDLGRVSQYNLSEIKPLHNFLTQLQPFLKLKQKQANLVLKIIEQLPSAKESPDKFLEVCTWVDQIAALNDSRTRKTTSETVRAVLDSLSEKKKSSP
# T6: LOX 3-4m.956 (artificial (I-CreI derived))
# T6 chain: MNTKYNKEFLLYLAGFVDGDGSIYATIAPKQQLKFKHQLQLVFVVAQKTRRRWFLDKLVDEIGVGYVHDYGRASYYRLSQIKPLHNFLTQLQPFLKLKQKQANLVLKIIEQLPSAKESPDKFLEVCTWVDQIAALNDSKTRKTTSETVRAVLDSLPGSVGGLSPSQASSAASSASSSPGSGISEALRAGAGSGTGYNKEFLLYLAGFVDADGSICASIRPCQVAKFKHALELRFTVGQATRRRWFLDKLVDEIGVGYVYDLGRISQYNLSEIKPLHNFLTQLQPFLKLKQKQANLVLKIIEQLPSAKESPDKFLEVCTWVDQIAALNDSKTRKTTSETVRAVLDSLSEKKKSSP
# T7: LOX 3-4m.1013 (artificial (I-CreI derived))
# T7 chain: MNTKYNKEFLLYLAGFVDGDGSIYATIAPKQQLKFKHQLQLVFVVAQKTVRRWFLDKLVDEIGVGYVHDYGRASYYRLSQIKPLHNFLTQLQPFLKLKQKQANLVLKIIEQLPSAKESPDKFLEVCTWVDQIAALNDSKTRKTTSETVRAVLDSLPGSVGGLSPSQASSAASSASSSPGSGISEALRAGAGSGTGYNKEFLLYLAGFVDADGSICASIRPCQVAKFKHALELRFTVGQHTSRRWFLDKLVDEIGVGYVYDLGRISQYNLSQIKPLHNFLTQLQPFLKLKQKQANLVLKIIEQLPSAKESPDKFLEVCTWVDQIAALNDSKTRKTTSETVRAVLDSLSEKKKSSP
# T8: LOX 3-4m.1036 (artificial (I-CreI derived))
# T8 chain: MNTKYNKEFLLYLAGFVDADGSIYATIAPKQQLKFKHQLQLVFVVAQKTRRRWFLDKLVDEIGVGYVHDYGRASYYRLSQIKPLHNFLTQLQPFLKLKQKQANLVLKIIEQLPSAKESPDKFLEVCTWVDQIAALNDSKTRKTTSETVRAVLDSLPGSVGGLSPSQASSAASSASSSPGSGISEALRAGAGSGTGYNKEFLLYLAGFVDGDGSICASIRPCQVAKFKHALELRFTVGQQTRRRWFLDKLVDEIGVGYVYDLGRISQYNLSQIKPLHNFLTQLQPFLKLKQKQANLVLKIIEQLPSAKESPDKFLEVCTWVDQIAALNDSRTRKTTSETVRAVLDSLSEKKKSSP
# T9: LOX 3-4m.494 (artificial (I-CreI derived))
# T9 chain: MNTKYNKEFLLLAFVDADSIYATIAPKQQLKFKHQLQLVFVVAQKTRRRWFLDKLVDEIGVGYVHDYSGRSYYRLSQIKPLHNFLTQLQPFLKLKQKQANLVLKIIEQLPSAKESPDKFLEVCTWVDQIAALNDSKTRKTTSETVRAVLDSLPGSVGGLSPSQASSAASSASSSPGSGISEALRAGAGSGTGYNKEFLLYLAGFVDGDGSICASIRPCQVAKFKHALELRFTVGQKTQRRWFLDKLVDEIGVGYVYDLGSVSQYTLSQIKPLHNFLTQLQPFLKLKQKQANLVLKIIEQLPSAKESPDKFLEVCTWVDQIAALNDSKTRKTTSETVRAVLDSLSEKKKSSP
# T10: LOX 3-4m.524 (artificial (I-CreI derived))
# T10 chain: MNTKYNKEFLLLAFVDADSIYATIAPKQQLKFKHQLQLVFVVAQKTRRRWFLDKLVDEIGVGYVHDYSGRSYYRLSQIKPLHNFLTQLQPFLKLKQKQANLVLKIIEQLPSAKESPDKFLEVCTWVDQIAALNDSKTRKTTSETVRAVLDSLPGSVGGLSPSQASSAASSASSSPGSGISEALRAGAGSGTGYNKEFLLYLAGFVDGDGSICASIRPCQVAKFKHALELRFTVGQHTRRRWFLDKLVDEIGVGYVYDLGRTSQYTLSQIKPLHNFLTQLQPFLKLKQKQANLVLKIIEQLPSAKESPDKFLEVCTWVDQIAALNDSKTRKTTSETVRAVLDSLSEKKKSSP
# T11: LOX 3-4m.509 (artificial (I-CreI derived))
# T11 chain: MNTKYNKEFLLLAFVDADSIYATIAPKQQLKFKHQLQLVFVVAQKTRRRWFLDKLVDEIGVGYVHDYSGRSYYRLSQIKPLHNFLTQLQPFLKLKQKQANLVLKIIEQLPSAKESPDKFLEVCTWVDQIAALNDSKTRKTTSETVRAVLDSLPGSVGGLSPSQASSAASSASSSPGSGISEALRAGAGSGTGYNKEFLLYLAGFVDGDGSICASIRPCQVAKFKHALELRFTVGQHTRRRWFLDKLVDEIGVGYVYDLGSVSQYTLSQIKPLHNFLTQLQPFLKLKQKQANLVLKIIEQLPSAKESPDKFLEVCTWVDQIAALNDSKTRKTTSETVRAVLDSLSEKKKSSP
# What was measured:
# Test in all cases: cell_activity; CHO iGFFP reporter
# [1] = target: T1, LOX 3-4m.925
# Text: (§1) A CHO cell reporter system (see WO/2012/167192, FIG. 3) was used to determine whether the engineered meganucleases generated in these studies could recognize and cleave the modified LOX 3-4 recognition sequences in Table 87. To perform the assay, a pair of CHO cell reporter lines were produced, which carried a non-functional Green Fluorescent Protein (GFP) gene expression cassette integrated into the genome of the cell. The GFP gene in each cell line was interrupted by a pair of recognition sequences such that intracellular cleavage of either recognition sequence by a meganuclease would stimulate a homologous recombination event resulting in a functional GFP gene. In both cell lines, one of the recognition sequences was derived from the LOX 3-4 recognition sequence (i.e., those sequences disclosed in Table 87), and the second recognition sequence was specifically recognized by a control meganuclease called “CHO 23/24.” CHO reporter cells comprising a recognition sequence derived from the LOX 3-4 recognition sequence and the CHO 23/24 recognition sequence are referred to herein as “test cells.”
# (§2) Novel engineered meganucleases derived from the LOX 3-4x.109 meganuclease were prepared by making amino acid substitutions at one or more positions in the first subunit and one or more positions in the second subunit. These engineered meganucleases were then evaluated for cleavage of the LOX 3-4 recognition sequence, which normally comprises an ACAT center sequence (SEQ ID NO: 44) in the CHO reporter assay according to Example 1.
# [2] = target: T2, LOX 3-4m.893
# Text: as §1, §2
# [3] = target: T3, LOX 3-4m.949
# Text: as §1, §2
# [4] = target: T4, LOX 3-4m.869
# Text: as §1, §2
# [5] = target: T5, LOX 3-4m.1044
# Text: as §1
# as §2, with “sequence modified to have” for “sequence, which normally comprises”, “ACGA” for “ACAT”, “68)” for “44)”
# [6] = target: T6, LOX 3-4m.956
# Text: as §1
# as §2, with “sequence modified to have” for “sequence, which normally comprises”, “ACGA” for “ACAT”, “68)” for “44)”
# [7] = target: T7, LOX 3-4m.1013
# Text: as §1
# as §2, with “sequence modified to have” for “sequence, which normally comprises”, “ACGA” for “ACAT”, “68)” for “44)”
# [8] = target: T8, LOX 3-4m.1036
# Text: as §1
# as §2, with “sequence modified to have” for “sequence, which normally comprises”, “ACGA” for “ACAT”, “68)” for “44)”
# [9] = target: T9, LOX 3-4m.494
# Text: as §1
# (§3) Novel engineered meganucleases derived from the LOX 3-4x.109 meganuclease were prepared by making amino acid substitutions at one or more positions in the first subunit and one or more positions in the second subunit. The N-terminal subunit recognizes the reverse complement of the AG portion of the four base pair center sequence, which is CT, and the C-terminal subunit recognizes the GC portion of the […] center sequence. These engineered meganucleases were then evaluated for cleavage of the LOX 3-4 recognition sequence modified to have a GCAG center sequence (SEQ ID NO: 326) in the CHO reporter assay according to Example 1. The substitutions in each subunit are provided in Tables 180 and 181, respectively.
# [10] = target: T10, LOX 3-4m.524
# Text: as §1, §3
# [11] = target: T11, LOX 3-4m.509
# Text: as §1, §3
binder,measurement,setting,value
"LOX 3-4 ACAT (native LOX 3-4 site, SEQ 6) (dsDNA) DNA 1: GTATAGCATACATTATACGAAG DNA 2: CTTCGTATAATGTATGCTATAC",activity,[1],12.2 % GFP
same,activity,[2],13.1 % GFP
same,activity,[3],12.5 % GFP
same,activity,[4],11.2 % GFP
LOX 3-4 ACGA (dsDNA) DNA 1: GTATAGCATACGATATACGAAG DNA 2: CTTCGTATATCGTATGCTATAC,activity,[5],5.8 % GFP
same,activity,[6],4.7 % GFP
same,activity,[7],1.7 % GFP
same,activity,[8],5 % GFP
LOX 3-4 GCAG (dsDNA) DNA 1: GTATAGCATGCAGTATACGAAG DNA 2: CTTCGTATACTGCATGCTATAC,activity,[9],13.8 % GFP
same,activity,[10],16.6 % GFP
same,activity,[11],13.4 % GFP

# — patent US20220195407, “OPTIMIZATION OF ENGINEERED MEGANUCLEASES FOR RECOGNITION SEQUENCES” (Precision BioSciences, Inc., published 2022)
